The text below walks through data of paper PMC3622925.

The target in the assay is Trichomonas vaginalis virus 1 strain UH9 coat protein (Trichomonas vaginalis virus 1 (TVV1), strain UH9). The experiment in a line: cryo-EM structure.

For “Trichomonas vaginalis virus 1 strain UH9 coat protein (natural protein)”, the stoichiometry N (subunits per capsid) came to 120.
